# Experimental data taken from patent US20200024322A1 (Eli Lilly, published 2020).
# Residue numbers refer to the chain shown, from its start.
# T1: human gastric inhibitory peptide receptor (GIPR) (human, UniProt P48546 22-466)
# T1 sequence (looked up): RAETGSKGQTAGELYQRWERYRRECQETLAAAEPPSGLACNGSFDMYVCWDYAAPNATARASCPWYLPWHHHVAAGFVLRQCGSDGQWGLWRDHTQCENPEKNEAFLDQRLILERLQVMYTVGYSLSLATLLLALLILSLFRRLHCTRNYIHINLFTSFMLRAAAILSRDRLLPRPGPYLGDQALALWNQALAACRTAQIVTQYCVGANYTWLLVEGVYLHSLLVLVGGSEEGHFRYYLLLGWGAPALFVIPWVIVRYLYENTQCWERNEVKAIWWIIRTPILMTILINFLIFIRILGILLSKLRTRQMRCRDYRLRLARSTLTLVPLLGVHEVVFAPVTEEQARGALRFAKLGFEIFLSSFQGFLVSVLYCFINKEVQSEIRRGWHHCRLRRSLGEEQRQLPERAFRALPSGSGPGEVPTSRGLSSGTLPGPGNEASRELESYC
# T2: human GIP receptor (human, UniProt P48546 22-466)
# T2 construct: whole, on cells; also called hGIPR; hGIP-R
# T2 sequence (looked up): T1 sequence (looked up)
# B1: (D-Tyr)-Aib-EGTFTSDYSI-αMeL-LD-Orn-K((2-[2-(2-Amino-ethoxy)-ethoxy]-acetyl)2-(γ-Glu)-CO-(CH2)18-CO2H)AQ-Aib-AFVEYLIEGGPSSGAPPPS-NH2 (peptide)
# peptide: XXEGTFTSDYSIXLDXKAQXAFVEYLIEGGPSSGAPPPS
# modifications: D-Tyr1; Aib2; αMeL13; Orn16; K17 conjugated to (2-[2-(2-Amino-ethoxy)-ethoxy]-acetyl)2-(γ-Glu)-CO-(CH2)18-CO2H; Aib20; C-terminal amide (NH2)
# B2: (D-Tyr)-Aib-EGTFTSDYSI-αMeL-LDKK((2-[2-(2-Amino-ethoxy)-ethoxy]-acetyl)2-(γ-Glu)-CO-(CH2)18-CO2H)AQ-Aib-AFV-(D-Glu)-YLIAGGPSSGAPPPS-NH2 (peptide)
# peptide: B1 peptide with X16K, E24X, E28A
# modifications: D-Tyr1; Aib2; αMeL13; K17 conjugated to (2-[2-(2-Amino-ethoxy)-ethoxy]-acetyl)2-(γ-Glu)-CO-(CH2)18-CO2H; Aib20; D-Glu24; C-terminal amide (NH2)
# B3: (D-Tyr)-Aib-EGTFTSDYSI-αMeL-LD-Orn-K((2-[2-(2-Amino-ethoxy)-ethoxy]-acetyl)2-(γ-Glu)-CO-(CH2)18-CO2H)AQ-Aib-AFV-(D-Glu)-YLIAGGPSSGAPPPS-NH2 (peptide)
# peptide: B1 peptide with E24X, E28A
# modifications: D-Tyr1; Aib2; αMeL13; Orn16; K17 conjugated to (2-[2-(2-Amino-ethoxy)-ethoxy]-acetyl)2-(γ-Glu)-CO-(CH2)18-CO2H; Aib20; D-Glu24; C-terminal amide (NH2)
# B4: (D-Tyr)-Aib-EGTFTSDYSI-αMeL-LD-Orn-K((2-[2-(2-Amino-ethoxy)-ethoxy]-acetyl)2-(D-(γ-Glu)-CO-(CH2)16-CO2H)AQ-Aib-AFI-Glu)-YLIAGGPSSGAPPPS-NH2 (peptide)
# peptide: B1 peptide with V23I, E24X, E28A
# modifications: D-Tyr1; Aib2; αMeL13; Orn16; K17 conjugated to (2-[2-(2-Amino-ethoxy)-ethoxy]-acetyl)2-(γ-Glu)-CO-(CH2)16-CO2H; Aib20; C-terminal amide (NH2)
# B5: (D-Tyr)-Aib-EGTFTSDYSI-αMeL-LD-Orn-K((2-[2-(2-Amino-ethoxy)-ethoxy]-acetyl)2-(γ-Glu)-CO-(CH2)16-CO2H)AQ-Aib-AFV-(D-Glu)-YLIAGGPSSGAPPPS-NH2 (peptide)
# peptide: B1 peptide with E24X, E28A
# modifications: D-Tyr1; Aib2; αMeL13; Orn16; K17 conjugated to (2-[2-(2-Amino-ethoxy)-ethoxy]-acetyl)2-(γ-Glu)-CO-(CH2)16-CO2H; Aib20; D-Glu24; C-terminal amide (NH2)
# B6: (D-Tyr)-Aib-EGTFTSDYSI-αMeL-LDKK((2-[2-(2-Amino-ethoxy)-ethoxy]-acetyl)2-(γ-Glu)-CO-(CH2)18-CO2H)AQ-Aib-AFIE-αMeY-LIAGGPSSGAPPPS-NH2 (peptide)
# peptide: B1 peptide with X16K, V23I, Y25X, E28A
# modifications: D-Tyr1; Aib2; αMeL13; K17 conjugated to (2-[2-(2-Amino-ethoxy)-ethoxy]-acetyl)2-(γ-Glu)-CO-(CH2)18-CO2H; Aib20; αMeY25; C-terminal amide (NH2)
# B7: (D-Tyr)-Aib-EGTFTSDYSI-αMeL-LD-Orn-K((2-[2-(2-Amino-ethoxy)-ethoxy]-acetyl)2-(γ-Glu)-CO-(CH2)18-CO2H)AQ-Aib-AFIE-αMeY-LIAGGPSSGAPPPS-NH2 (peptide)
# peptide: B1 peptide with V23I, Y25X, E28A
# modifications: D-Tyr1; Aib2; αMeL13; Orn16; K17 conjugated to (2-[2-(2-Amino-ethoxy)-ethoxy]-acetyl)2-(γ-Glu)-CO-(CH2)18-CO2H; Aib20; αMeY25; C-terminal amide (NH2)
# B8: Y-Aib-EGTFTSDYSI-αMeL-LDKK((2[2-(2-Amino-ethoxy)-ethoxy]-acetyl)2-(γ-Glu)-CO-(CH2)18-CO2H)AQ-Aib-EFIE-αMeY-LIAGGPSSGAPPPS-NH2 (peptide)
# peptide: YXEGTFTSDYSIXLDKKAQXEFIEXLIAGGPSSGAPPPS
# modifications: Aib2; αMeL13; K17 conjugated to (2-[2-(2-Amino-ethoxy)-ethoxy]-acetyl)2-(γ-Glu)-CO-(CH2)18-CO2H; Aib20; αMeY25; C-terminal amide (NH2)
# B9: (D-Tyr)-Aib-EGTFTSDYSI-αMeL-LD-Orn-K((2-[2-(2-Amino-ethoxy)-ethoxy]-acetyl)2-(γ-Glu)-CO-(CH2)16-CO2H)AQ-Aib-EFIEYLIAGGPSSGAPPPS-NH2 (peptide)
# peptide: B1 peptide with A21E, V23I, E28A
# modifications: D-Tyr1; Aib2; αMeL13; Orn16; K17 conjugated to (2-[2-(2-Amino-ethoxy)-ethoxy]-acetyl)2-(γ-Glu)-CO-(CH2)16-CO2H; Aib20; C-terminal amide (NH2)
# B10: (D-Tyr)-Aib-EGTFTSDYSI-αMeL-LD-Orn-K((2-[2-(2-Amino-ethoxy)-ethoxy]-acetyl)2-(γ-Glu)-CO-(CH2)18-CO2H)AQ-Aib-DFIEYLIAGGPSSGAPPPS-NH2 (peptide)
# peptide: B1 peptide with A21D, V23I, E28A
# modifications: D-Tyr1; Aib2; αMeL13; Orn16; K17 conjugated to (2-[2-(2-Amino-ethoxy)-ethoxy]-acetyl)2-(γ-Glu)-CO-(CH2)18-CO2H; Aib20; C-terminal amide (NH2)
# B11: (D-Tyr)-Aib-EGTFTSDYSI-αMeL-LD-Orn-K((2-[2-(2-Amino-ethoxy)-ethoxy]-acetyl)2-(c-Glu)-CO-(CH2)18-CO2H)AQ-Aib-EFIEYLIAGGPSSG-NH2 (peptide)
# peptide: XXEGTFTSDYSIXLDXKAQXEFIEYLIAGGPSSG
# modifications: D-Tyr1; Aib2; αMeL13; Orn16; K17 conjugated to (2-[2-(2-Amino-ethoxy)-ethoxy]-acetyl)2-(c-Glu)-CO-(CH2)18-CO2H ('c-Glu' as printed, presumably γ-Glu); Aib20; C-terminal amide (NH2)
# B12: (D-Tyr)-Aib-EGTFTSDYSI-αMeL-LD-Orn-K((2-[2-(2-Amino-ethoxy)-ethoxy]-acetyl)-(γ-Glu)-CO-(CH2)18-CO2H)AQ-Aib-EFIEYLIAGGPSSGAPPPS-NH2 (peptide)
# peptide: B1 peptide with A21E, V23I, E28A
# modifications: D-Tyr1; Aib2; αMeL13; Orn16; K17 conjugated to (2-[2-(2-Amino-ethoxy)-ethoxy]-acetyl)-(γ-Glu)-CO-(CH2)18-CO2H; Aib20; C-terminal amide (NH2)
# B13: (D-Tyr)-Aib-EGTFTSDYSI-αMeL-LDKK((2-[2-(2-Amino-ethoxy)-ethoxy]-acetyl)-(γ-Glu)-CO-(CH2)18-CO2H)AQ-Aib-EFIE-αMeY-LIAGGPSSGAPPPS-NH2 (peptide)
# peptide: B8 peptide with Y1X
# modifications: D-Tyr1; Aib2; αMeL13; K17 conjugated to (2-[2-(2-Amino-ethoxy)-ethoxy]-acetyl)-(γ-Glu)-CO-(CH2)18-CO2H; Aib20; αMeY25; C-terminal amide (NH2)
# B14: (D-Tyr)-Aib-EGTFTSDYSI-αMeL-LDKK((2-[2-(2-Amino-ethoxy)-ethoxy]-acetyl)-(γ-Glu)-CO-(CH2)18-CO2H)AQ-Aib-AFIE-αMeY-LIAGGPSSGAPPPS-NH2 (peptide)
# peptide: B8 peptide with Y1X, E21A
# modifications: D-Tyr1; Aib2; αMeL13; K17 conjugated to (2-[2-(2-Amino-ethoxy)-ethoxy]-acetyl)-(γ-Glu)-CO-(CH2)18-CO2H; Aib20; αMeY25; C-terminal amide (NH2)
# B15: (D-Tyr)-Aib-EGTFTSDYSI-αMeL-LDKK((2-[2-(2-Amino-ethoxy)-ethoxy]-acetyl)2-(γ-Glu)-CO-(CH2)16-CO2H)AQ-Aib-EFIE-αMeY-LIAGGPSSGAPPPS-NH2 (peptide)
# peptide: B8 peptide with Y1X
# modifications: D-Tyr1; Aib2; αMeL13; K17 conjugated to (2-[2-(2-Amino-ethoxy)-ethoxy]-acetyl)2-(γ-Glu)-CO-(CH2)16-CO2H; Aib20; αMeY25; C-terminal amide (NH2)
# B16: (D-Tyr)-Aib-EGTFTSDYSI-αMeL-LD-Orn-K((2-[2-(2-Amino-ethoxy)-ethoxy]-acetyl)2-(γ-Glu)-CO-(CH2)16-CO2H)AQ-Aib-EFIE-αMeY-LIAGGPSSGAPPPS-NH2 (peptide)
# peptide: B8 peptide with Y1X, K16X
# modifications: D-Tyr1; Aib2; αMeL13; Orn16; K17 conjugated to (2-[2-(2-Amino-ethoxy)-ethoxy]-acetyl)2-(γ-Glu)-CO-(CH2)16-CO2H; Aib20; αMeY25; C-terminal amide (NH2)
# B17: (D-Tyr)-Aib-EGTFTSDYSI-αMeL-LDKK((2-[2-(2-Amino-ethoxy)-ethoxy]-acetyl)2-(γ-Glu)-CO-(CH2)16-CO2H)AQ-Aib-AFIE-αMeY-LIAGGPSSGAPPPS-NH2 (peptide)
# peptide: B8 peptide with Y1X, E21A
# modifications: D-Tyr1; Aib2; αMeL13; K17 conjugated to (2-[2-(2-Amino-ethoxy)-ethoxy]-acetyl)2-(γ-Glu)-CO-(CH2)16-CO2H; Aib20; αMeY25; C-terminal amide (NH2)
# B18: Example 346 (peptide)
# peptide: B1 peptide with V23I, E28A
# modifications: D-Tyr1; Aib2; αMeL13; Orn16; K17((2-[2-(2-Amino-ethoxy)-ethoxy]-acetyl)2-(γ-Glu)-CO-(CH2)18-CO2H); Aib20; C-terminal NH2
# B19: Example 360 (peptide)
# peptide: B1 peptide
# modifications: D-Tyr1; Aib2; αMeL13; Orn16; K17((2-[2-(2-Amino-ethoxy)-ethoxy]-acetyl)2-(γ-Glu)-CO-(CH2)18-CO2H); Aib20; C-terminal NH2
# B20: Example 367 (peptide)
# peptide: B8 peptide
# modifications: Aib2; αMeL13; K17((2-[2-(2-Amino-ethoxy)-ethoxy]-acetyl)2-(γ-Glu)-CO-(CH2)18-CO2H); Aib20; αMeY25; C-terminal NH2
# Assays:
# [1] = target: T1, human gastric inhibitory peptide …; assay: cell-based or functional assay
# [2] = target: human GLP-1 receptor (GLP-1R) (human, UniProt P43220 24-463); assay: cell-based or functional assay
# human GIP receptor = target: T2, human GIP receptor; assay: [125I]-GIP competition SPA, hGIPR membranes
# human glucagon receptor = target: T3, human glucagon receptor (human, UniProt P47871 26-477); assay: [125I]-Gcg competition SPA, hGcgR membranes
# T3 construct: whole, on cells; also called hGcgR; GcgR
# T3 sequence (P47871 26-477): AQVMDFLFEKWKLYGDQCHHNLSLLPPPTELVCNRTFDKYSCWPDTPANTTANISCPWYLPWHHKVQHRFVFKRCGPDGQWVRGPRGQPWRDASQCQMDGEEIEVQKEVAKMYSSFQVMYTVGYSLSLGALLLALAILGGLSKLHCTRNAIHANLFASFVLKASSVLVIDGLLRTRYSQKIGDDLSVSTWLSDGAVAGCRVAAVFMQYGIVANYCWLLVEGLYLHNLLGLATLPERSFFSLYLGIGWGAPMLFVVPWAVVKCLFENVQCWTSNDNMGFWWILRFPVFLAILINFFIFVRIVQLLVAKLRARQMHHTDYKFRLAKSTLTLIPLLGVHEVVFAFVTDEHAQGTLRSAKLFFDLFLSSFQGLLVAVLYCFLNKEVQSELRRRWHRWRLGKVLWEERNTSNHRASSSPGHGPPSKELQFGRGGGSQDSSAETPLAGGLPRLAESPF
# human GLP-1 receptor = target: T4, human GLP-1 receptor (human, UniProt P43220 24-463); assay: [125I]-GLP-1 competition SPA, hGLP-1R membranes
# T4 construct: whole, on cells; also called hGLP-1R; hGLP1R
# In short: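 Competition binding in 25 mM HEPES pH 7.4, 2.5 mM CaCl₂, 1 mM MgCl₂, 0.1% bacitracin, 0.003% TWEEN-20, EDTA-free protease inhibitors. IC₅₀ from four-parameter nonlinear fit; Kᵢ given as geometric mean ± SEM, n = independent replicates on different days.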
Binder,hGIPR cAMP EC50 ratio [1],hGLP1R cAMP EC50 ratio [2],Ki (human GIP receptor) [nM],Ki (human glucagon receptor) [nM],Ki (human GLP-1 receptor) [nM]
B1,0.53,0.171,–,–,–
B2,0.261,0.0259,–,–,–
B3,0.347,0.0805,–,–,–
B4,0.835,0.146,–,–,–
B5,0.347,0.0303,–,–,–
B6,0.784,0.155,–,–,–
B7,0.598,0.074,–,–,–
B8,5.85,0.386,–,–,–
B9,0.109,0.299,–,–,–
B10,0.499,0.319,–,–,–
B11,0.704,0.172,–,–,–
B12,0.393,0.206,–,–,–
B13,0.68,0.0741,–,–,–
B14,0.287,0.0621,–,–,–
B15,1.76,0.169,–,–,–
B16,1.13,0.178,–,–,–
B17,0.734,0.159,–,–,–
B18,–,–,0.0559,310,1.67
B19,–,–,0.128,485,1.74
B20,–,–,0.0282,777,0.809
